Data reported in patent US20180318437A1 (Bayer, published 2018).

Experiments:
[1] = target: T1, IL-3Ralpha, CD123, on CD123-positive human cancer cell lines (human, UniProt P26951 20-378); test: flow cytometry on MV-4-11 cells, titration from 10 ug/ml in 1:5 steps, anti-kappa-FITC secondary antibody; MV-4-11 cells
T1 construct: Target of the flow cytometry and internalisation assays; The cell line of each value is named under assay
T1 sequence: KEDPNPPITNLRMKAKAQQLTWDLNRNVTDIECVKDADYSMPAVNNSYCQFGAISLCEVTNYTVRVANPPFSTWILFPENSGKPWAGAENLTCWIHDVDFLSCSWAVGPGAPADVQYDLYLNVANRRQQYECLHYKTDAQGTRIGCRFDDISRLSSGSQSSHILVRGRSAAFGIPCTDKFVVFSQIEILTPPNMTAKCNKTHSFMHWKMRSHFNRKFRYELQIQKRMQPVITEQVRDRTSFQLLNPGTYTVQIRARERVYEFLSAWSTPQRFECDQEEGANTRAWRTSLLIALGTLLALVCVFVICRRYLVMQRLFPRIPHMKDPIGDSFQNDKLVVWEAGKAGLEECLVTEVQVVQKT
Method: Binding of the anti-CD123 antibodies was examined by flow cytometry using different human haematological cell lines (MOLM-13, THP-1, KG-1). To this end, the cells (5×10⁵ cells/well) were incubated in FACS buffer (PBS without Ca/Mg, 3% FCS, Biochrom) with 10 μg/ml primary antibody solution (start concentration) on ice for 30-45 min protected from light. A dose activity curve (1:5 dilution) was plotted. After the incubation, 200 μl of ice-cold FACS buffer were added using a pipette, and the cell suspension was centrifuged at 4° C., 400 g, for 4 min. The cell pellet was washed with 300 μl of ice-cold FACS buffer and the pellet obtained was then resuspended in 100 μl FACS buffer and incubated again with secondary antibody (monoclonal anti-kappa light chains-FITC antibody, Sigma, No. SAB4700605) in a 1:10 dilution on ice for 30 min. The cells were then washed with ice-cold FACS buffer and adjusted to a cell concentration of 0.5×10⁶ cell/ml prior to flow cytometry using a Guava flow cytometer (Millipore). Propidium iodide (final concentration 1 μg/ml) was used for live staining.

[2] = target: T2, TPP-5521, recombinant antigen IL3Ra aa20-305 (IL3R3alpha/CD123) (murine (as printed under 'Origin' in …, UniProt P26951 20-305 (human entry))); test: SPR, Biacore T200, antibody captured by anti-human Fc, IL3Ra (TPP-5521) as analyte 1.56-200 nM, 25 C, 1:1 Langmuir fit
T2 construct: Bought protein; also called IL3Ra protein; extracellular domain of IL3Ra
T2 sequence: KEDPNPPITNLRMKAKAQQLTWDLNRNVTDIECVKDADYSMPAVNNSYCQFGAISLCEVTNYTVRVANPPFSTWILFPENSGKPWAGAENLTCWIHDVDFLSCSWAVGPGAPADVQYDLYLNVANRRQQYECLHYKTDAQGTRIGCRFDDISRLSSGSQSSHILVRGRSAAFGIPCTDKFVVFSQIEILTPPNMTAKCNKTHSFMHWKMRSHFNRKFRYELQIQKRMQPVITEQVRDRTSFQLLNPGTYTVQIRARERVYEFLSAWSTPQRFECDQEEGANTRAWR
Method: Surface plasmon resonance experiments for quantitative binding analysis were carried out using a Biacore T200 instrument (GE Healthcare Biacore, Inc.). […] Amine coupling was performed according to the manufacturer's instructions using 1-ethyl-3-(3-dimethylaminopropyl)carbodiimide hydrochloride (EDC), N-hydroxysuccinimide (NHS) and ethanolamine HCl pH 8.5 (“Amine Coupling Kit” BR-1000-50, GE Healthcare Biacore, Inc.). For the analyses, Series S sensor chips CM5 (GE Healthcare Biacore, Inc.) were used with the mobile buffer HBS-EP+ (10 mM HEPES pH 7.4, 150 mM NaCl, 3 mM EDTA, 0.05% Surfactant P20). All experimental steps were carried out at 25° C. […] Prior to another analyte injection, antibodies were in each case fixed as above, under identical conditions. For all measurements, an upstream flow cell only containing immobilized amine-coupled anti-human Fc antibody was used as reference cell. Evaluation of the sensorgrams obtained was, after double referencing (subtraction of the reference flow cell signal and a buffer injection), carried out by a global fit based on a 1:1 Langmuir binding model with the aid of the Biacore T200 evaluation software (GE Healthcare Biacore, Inc.).

B1: TPP-5969 (antibody, human IgG1, kappa, V domains shown)
VH: QVQLVQSGAEVKKPGSSVKVSCKASGGTFSDYYMKWVRQAPGQGLEWMGDIIPSNGATFYAQKFQGRVTITADESTSTAYMELSSLRSEDTAVYYCARSHLLRASWFAYWGQGTLVTVSS
VL: DIVMTQSPDSLAVSLGERATINCESSQSLLNSGNQKNYLTWYQQKPGQPPKLLIYWASTRESGVPDRFSGSGSGTDFTLTISSLQAEDVAVYYCQNDYSYPYTFGQGTKLEIKR
notes: Humanized variant of 7G3 made by CDR grafting, human IgG1 kappa; Tested as unconjugated antibody; also called anti-CD123 AK1A; humanized variant of 7G3
[1]
  EC50: 2.6 nM

B2: TPP-6013 (antibody, human IgG1, kappa, V domains shown)
VH: QVQLQESGPGLVKPSQSLSLTCSVTDYSITSGYYWNWIRQFPGNKLEWMGYISYDGSNNYNPSLKNRISITRDTSKNQFFLKLSSVTTEDTATYYCSRGEGFYFDSWGQGTTLTVSS
VL: DIMMSQSPSSLAVSVGEKFTMTCKSSQSLFFGSTQKNYLAWYQQKPGQSPKLLIYWASTRESGVPDRFTGSGSGTDFTLAISSVMPEDLAVYYCQQYYNYPWTFGGGTKLEIKR
notes: Tested as unconjugated antibody; also called anti-CD123 AK1C; chimeric variant of 12F1
[2]
  koff: 0.00019 s⁻¹
  kon: 300000 M⁻¹ s⁻¹
